Assay results: patent publication US20220411487A1

Biological target: catalytically inactive full length human TMPRSS6 on HEK293 cells (HEK293/hTMPRSS6 (S762A)) (human) (UniProt Q8IU80)
Assay: flow cytometry, HEK293 cells expressing target

Chain of catalytically inactive full length human TMPRSS6 on HEK293 cells (HEK293/hTMPRSS6 (S762A)) (human) (Q8IU80 10-811 S762A): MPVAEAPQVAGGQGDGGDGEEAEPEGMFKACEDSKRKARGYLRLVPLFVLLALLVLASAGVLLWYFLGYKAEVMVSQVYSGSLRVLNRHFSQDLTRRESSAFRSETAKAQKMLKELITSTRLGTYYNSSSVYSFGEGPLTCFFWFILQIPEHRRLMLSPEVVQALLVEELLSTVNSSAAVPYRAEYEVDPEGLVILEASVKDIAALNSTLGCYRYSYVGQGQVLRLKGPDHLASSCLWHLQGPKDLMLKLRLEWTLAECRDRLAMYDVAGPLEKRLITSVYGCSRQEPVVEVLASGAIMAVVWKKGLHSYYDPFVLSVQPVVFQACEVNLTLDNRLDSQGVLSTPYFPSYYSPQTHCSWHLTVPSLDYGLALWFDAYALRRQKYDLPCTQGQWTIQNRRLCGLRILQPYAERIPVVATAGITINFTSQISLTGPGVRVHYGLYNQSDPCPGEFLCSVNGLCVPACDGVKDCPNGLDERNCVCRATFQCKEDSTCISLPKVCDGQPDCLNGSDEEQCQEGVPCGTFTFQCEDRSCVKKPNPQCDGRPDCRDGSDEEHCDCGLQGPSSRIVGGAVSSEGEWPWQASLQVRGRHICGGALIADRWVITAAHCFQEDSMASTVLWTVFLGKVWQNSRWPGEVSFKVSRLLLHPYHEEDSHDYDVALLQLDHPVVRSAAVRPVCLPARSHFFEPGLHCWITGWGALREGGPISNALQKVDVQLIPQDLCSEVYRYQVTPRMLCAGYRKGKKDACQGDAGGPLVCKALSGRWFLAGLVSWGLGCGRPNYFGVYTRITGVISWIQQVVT

EC50: 2 nM
Max. Fold Binding (fold over unstained control): 300
B1: REGN8023 (antibody, human IgG4 S228P, kappa, V domains shown)
VH: EVQLVESGGGLVKPGGSLRISCAASGFIFVDYAMHWVRQAPGKGLEWVSGISWNSGSIGYADSVKGRFTISRDNAKKSLYLQMSGLRPEDTALYYCVKSGFYYVRSYFDNWGQGTLVTVSS
VL: DIVMTQSPLSLPVTPGEPASISCRSSQSLLDSDDGNTYLDWYLRKPGQSPQLLIYTLSYRASGVPDRFSGSGSGTDFTLKISRVEADDVGVYYCMQRIEFPLTFGGGTKVEIKR
